Results published in patent publication US20140242093A1, “METHODS AND COMPOSITIONS FOR MODULATING THE INNATE IMMUNE RESPONSE AND/OR MYOGENESIS IN A MAMMALIAN SUBJECT” (FRED HUTCHINSON CANCER RESEARCH CENTER, priority 2011, published 2014).

Test system: control human primary myoblasts
Experiment: Expression microarray of primary myoblasts transduced with lentivirus carrying DUX4-fl, DUX4-s or GFP
Protocol: Primary human myoblasts were collected and cultured as previously described (Snider et al., 2010). Primary myoblasts were maintained at or below 70% confluency for proliferation. For differentiation, cells were allowed to reach 95-100% confluency in growth medium. Once confluency was reached, the cells were changed to differentiation medium (F10 media supplemented with 1% horse serum, 10 μg/mL insulin, and 10 μg/mL transferrin, penicillin/streptomycin) and maintained for 4 days. Human RD cells were grown in DMEM in 10% bovine calf serum (Hyclone) and penicillin/streptomycin. The primary myoblasts were transduced with lentivirus carrying DUX-fl, DUX4- or GFP (MOI=15).
Expression microarrays were performed on the transduced cells at 24 hours after transduction as follows. […] Samples were analyzed by Illumina Human Whole Genome microarrays. Probe intensities were corrected, normalized, and summarized by the Lumi package of Bioconductor (Du et al., 2008). Differentially expressed genes were identified by the LIMMA package of Bioconductor (Wettenhall and Smyth, 2004). Gene set enrichment analysis (GSEA) was performed using the Bioconductor GOstats package (Falcon and Gentleman, 2007).

B1: DUX4-s: short splice form of DUX4 (SEQ ID NO:112), keeps the double-homeobox domains, lacks the C-terminal activation domain (protein, listed as Homo sapiens)
chain: MALPTPSDSTLPAEARGRGRRRRLVWTPSQSEALRACFERNPYPGIATRERLAQAIGIPEPRVQIWFQNERSRQLRQHRRESRPWPGRRGPPEGRRKRTAVTGSQTALLLRAFEKDRFPGIAAREELARETGLPESRIQIWFQNRRARHPGQGGRAPAQV
Q: Which results are given for B1?
A: fc of XPO1 (expression array) (Refseq NM_003400.3): −0.2325; fc of ZFP36 (expression array) (Refseq NM_003407.2): 0.2317; ZKSCAN1 fc (Refseq NM_003439.1): 0.3802; fc of Cxorfl2 (expression array) (Refseq NM_003492.1): 0.03462; fc of TAGLN2 (expression array) (Refseq NM_003564.1): 0.05495; fc of EEA1 (expression array) (Refseq NM_003566.2): 1.034; IFITM1 expression fc (Refseq NM_003641.3, cultured human skeletal muscle): 0.3441; fc of VAMP8 (expression array) (Refseq NM_003761.2): 0.002691; fc of VAMP4 (expression array) (Refseq NM_003762.3): 0.4731; RNGTT expression fc (Refseq NM_003800.3): −0.5916; RIPK1 fc (Refseq NM_003804.3): −0.2407; TNFSF10 fc (Refseq NM_003810.2): 2.972; TNFRSF14 expression fc (Refseq NM_003820.2, cultured human skeletal muscle): 0.5666; fc of RIOK3 (expression array) (Refseq NM_003831.2): 1.133; TNFRSF10A fc (Refseq NM_003844.2): 0.8441; PEX11B fc (Refseq NM_003846.1): −0.2212; CES2 expression fc (Refseq NM_003869.4, cultured human skeletal muscle): 0.06106; CFLAR expression fc (Refseq NM_003879.3, cultured human skeletal muscle): 0.5313; fc of ASAP2 (expression array) (Refseq NM_003887.2): −0.3423; CCNA1 expression fc (Refseq NM_003914.2): 1.884; fc of USP13 (expression array) (Refseq NM_003940.2): −1.038; NPR2 fc (Refseq NM_003995.3): −0.04506; fc of OSMR (expression array) (Refseq NM_003999.1): 1.118; CHI3L2 expression fc (Refseq NM_004000.2, cultured human skeletal muscle): 0.2573; IRF7 expression fc (Refseq NM_004029.2, cultured human skeletal muscle): 1.137; CRY1 expression fc (Refseq NM_004075.2): −0.1268; PSPN expression fc (Refseq NM_004158.2): −0.03876; BEST1 fc (Refseq NM_004183.2): 0.2661; UBE2L6 expression fc (Refseq NM_004223.3, cultured human skeletal muscle): 0.5808; fc of STK17B (expression array) (Refseq NM_004226.2): 1.309; fc of SLC9A3R1 (expression array) (Refseq NM_004252.2): −0.06339; BST2 expression fc (Refseq NM_004335.2, cultured human skeletal muscle): 0.21; CREB1 fc (Refseq NM_004379.2): −0.08534; fc of HOXB7 (expression array) (Refseq NM_004502.3): −0.06124; SP110 expression fc (Refseq NM_004510.2, cultured human skeletal muscle): 1.154; PSPH fc (Refseq NM_004577.3): 0.005654; XPC expression fc (Refseq NM_004628.3, cultured human skeletal muscle): 0.2629; PABPN1 expression fc (Refseq NM_004643.1): −0.2585; MAP3K6 fc (Refseq NM_004672.3): −0.2268; fc of SLC16A5 (expression array) (Refseq NM_004695.2): −0.03968; fc of SFRS2IP (expression array) (Refseq NM_004719.2): −1.068; fc of ARHGEF2 (expression array) (Refseq NM_004723.2): −0.07136; TIAF1 fc (Refseq NM_004740.3): −0.5294; NOLC1 expression fc (Refseq NM_004741.1): 0.4977; SLIT2 expression fc (Refseq NM_004787.1): 0.8501; LPXN fc (Refseq NM_004811.1): −0.0176; PEX16 fc (Refseq NM_004813.1): 0.02427; C9orf61 expression fc (Refseq NM_004816.2): −0.2563; MED26 expression fc (Refseq NM_004831.3): 0.1371; fc of GSTO1 (expression array) (Refseq NM_004832.1): 0.3142; fc of LITAF (expression array) (Refseq NM_004862.2): 1.12; fc of SCAMPI (expression array) (Refseq NM_004866.4): 1.369; fc of APBA3 (expression array) (Refseq NM_004886.3): 0.001776; SERPINI1 expression fc (Refseq NM_005025.3): 0.0354; TRIM25 expression fc (Refseq NM_005082.4, cultured human skeletal muscle): 0.5139; SFRS17A expression fc (Refseq NM_005088.2): 0.2404; ISG15 expression fc (Refseq NM_005101.1, cultured human skeletal muscle): 0.128; MVP fc (Refseq NM_005115.3): −0.1162; MED13 expression fc (Refseq NM_005121.2): 0.0264; fc of REC8 (expression array) (Refseq NM_005132.2): −0.244; ATP6V0A1 fc (Refseq NM_005177.3): −0.04497; CEBPB expression fc (Refseq NM_005194.2, cultured human skeletal muscle): 0.2783; ETS1 fc (Refseq NM_005238.2): −0.1783; FAT1 fc (Refseq NM_005245.3): 0.4055; GPR37 expression fc (Refseq NM_005302.2): 0.2151; H1F0 expression fc (Refseq NM_005318.2, cultured human skeletal muscle): 0.5004; HSPA1A expression fc (Refseq NM_005345.4): −0.02035; HSPA1B expression fc (Refseq NM_005346.3): 0.359; NEFM expression fc (Refseq NM_005382.1): 0.8485; SHMT2 fc (Refseq NM_005412.4): 0.2615; STAT2 expression fc (Refseq NM_005419.2, cultured human skeletal muscle): 0.1861; EOMES expression fc (Refseq NM_005442.2): 0.06484; TOM1 fc (Refseq NM_005488.1): 4.81E−05; HLA-B expression fc (Refseq NM_005514.5, cultured human skeletal muscle): 0.3367; HLA-E fc (Refseq NM_005516.4): 0.8147; IFI16 expression fc (Refseq NM_005531.1, cultured human skeletal muscle): 0.6846; IFI27 expression fc (Refseq NM_005532.3, cultured human skeletal muscle): 0.2746; IFI35 expression fc (Refseq NM_005533.2, cultured human skeletal muscle): 0.9169; IRS1 fc (Refseq NM_005544.1): 0.2753; KLC1 expression fc (Refseq NM_005552.4): −0.06609; RGS4 expression fc (Refseq NM_005613.3): −0.4837; SGK expression fc (Refseq NM_005627.2): −0.1104; TAF4B expression fc (Refseq NM_005640.1): −0.0444; fc of TERF2 (expression array) (Refseq NM_005652.2): 0.3314; fc of REEP5 (expression array) (Refseq NM_005669.4): −1.138; fc of HIPK3 (expression array) (Refseq NM_005734.3): 1.555; ARIH1 expression fc (Refseq NM_005744.2): 0.784; fc of NAMPT (expression array) (Refseq NM_005746.2): 1.21; LHFPL2 fc (Refseq NM_005779.1): −0.1437; STX6 expression fc (Refseq NM_005819.4): −0.4696; fc of RCAN2 (expression array) (Refseq NM_005822.2): −1.005; MFGE8 fc (Refseq NM_005928.1): 0.03254; MT1X expression fc (Refseq NM_005952.2, cultured human skeletal muscle): 0.3162; SNAI1 expression fc (Refseq NM_005985.2): −0.03657; RBM12 expression fc (Refseq NM_006047.4): −0.3748; TRIM22 expression fc (Refseq NM_006074.3, cultured human skeletal muscle): −0.01965; CBARA1 expression fc (Refseq NM_006077.2): −0.1543; TUBB2C expression fc (Refseq NM_006088.5): −0.5391; LASP1 fc (Refseq NM_006148.1): −0.4552; NFE2L2 fc (Refseq NM_006164.2): 0.329; OAS3 expression fc (Refseq NM_006187.2, cultured human skeletal muscle): 0.8654; fc of PDGFRL (expression array) (Refseq NM_006207.1): 1.203; PSME1 fc (Refseq NM_006263.2): 0.2775; STK3 expression fc (Refseq NM_006281.2): −0.215; THY1 fc (Refseq NM_006288.2): −0.6444; TNFAIP3 expression fc (Refseq NM_006290.2, cultured human skeletal muscle): 0.2793; HSPB3 expression fc (Refseq NM_006308.1): −0.7934; NXF1 expression fc (Refseq NM_006362.4): −0.3456; fc of ATG7 (expression array) (Refseq NM_006395.1): 0.2083; SLC34A2 expression fc (Refseq NM_006424.2): −0.03231; TXNRD2 fc (Refseq NM_006440.3): −0.1666; fc of MXD4 (expression array) (Refseq NM_006454.2): −0.9168; ARID3B expression fc (Refseq NM_006465.2): −0.07455; TXNIP expression fc (Refseq NM_006472.2, cultured human skeletal muscle): −0.01014; ZNF217 expression fc (Refseq NM_006526.2): −0.3262; FAM189B fc (Refseq NM_006589.2): 0.04019; fc of TCFL5 (expression array) (Refseq NM_006602.2): 0.0336; RFPL2 expression fc (Refseq NM_006605.1): 0.03122; fc of NES (expression array) (Refseq NM_006617.1): −1.118; HSPH1 expression fc (Refseq NM_006644.2): −0.4879; HCP5 fc (Refseq NM_006674.2): 0.1443; UGP2 fc (Refseq NM_006759.3): 0.1108; IFI44L expression fc (Refseq NM_006820.1, cultured human skeletal muscle): 0.4651; fc of CKAP4 (expression array) (Refseq NM_006825.2): 0.03538; fc of ILVBL (expression array) (Refseq NM_006844.3): −0.2803; KDELR3 fc (Refseq NM_006855.2): −0.444; fc of GMPR (expression array) (Refseq NM_006877.2): 1.36; SLC2A3 expression fc (Refseq NM_006931.1): 0.1012; fc of HSPA13 (expression array) (Refseq NM_006948.4): 1.34; ZBTB25 fc (Refseq NM_006977.2): 0.3463; ADAMTS1 fc (Refseq NM_006988.3): 0.1765; C1Oorf10 expression fc (Refseq NM_007021.2, cultured human skeletal muscle): 0.1432; fc of DNAJB4 (expression array) (Refseq NM_007034.3): 0.413; KATNA1 expression fc (Refseq NM_007044.2): 0.1132; UBL3 expression fc (Refseq NM_007106.2): −0.807; TESK2 expression fc (Refseq NM_007170.2): 0.1269; NUP50 expression fc (Refseq NM_007172.3): 1.035; fc of PACSIN2 (expression array) (Refseq NM_007229.1): −0.3253; DUSP12 expression fc (Refseq NM_007240.1): 0.09869
